The test concerns the target T1, flag tagged full length HDAC4 (human, UniProt P56524 1-1084).
T1 construct: Full length, expressed in transfected cells and immunoprecipitated from lysate; also called Flag-HDAC4; pcDNA HDAC4-flag; not shown: Flag tag
Nature of the test: co-immunoprecipitation, IP anti-Flag, blot anti-HA (FIG. 7B). On the procedure: Cultured cells were washed with ice-cold phosphate-buffered saline (PBS) buffer and lysed in buffer containing 50 mM Tris, pH 7.5, 150 mM NaCl, 1 mM EDTA, and 1% NP-40. 400 μg of protein was immunoprecipitated with anti-Flag (Sigma-Aldrich), or IgG antibodies (negative control) and protein A/G agarose beads (Santa Cruz Biotechnology, Inc.) as described previously [Kehat I, et al., Modulation of chromatin position and gene expression by HDAC4 interaction with nucleoporins. J Cell Biol 2011, 193, 21-29]. Beads were washed three times with buffer and suspended in 30 μl of Laemmli buffer. Proteins were separated on an SDS gel, blotted, and detected with primary antibody recognizing HA (Santa Cruz Biotechnology, Inc. sc-805) or flag (Sigma-Aldrich).

T1 sequence (P56524 whole entry): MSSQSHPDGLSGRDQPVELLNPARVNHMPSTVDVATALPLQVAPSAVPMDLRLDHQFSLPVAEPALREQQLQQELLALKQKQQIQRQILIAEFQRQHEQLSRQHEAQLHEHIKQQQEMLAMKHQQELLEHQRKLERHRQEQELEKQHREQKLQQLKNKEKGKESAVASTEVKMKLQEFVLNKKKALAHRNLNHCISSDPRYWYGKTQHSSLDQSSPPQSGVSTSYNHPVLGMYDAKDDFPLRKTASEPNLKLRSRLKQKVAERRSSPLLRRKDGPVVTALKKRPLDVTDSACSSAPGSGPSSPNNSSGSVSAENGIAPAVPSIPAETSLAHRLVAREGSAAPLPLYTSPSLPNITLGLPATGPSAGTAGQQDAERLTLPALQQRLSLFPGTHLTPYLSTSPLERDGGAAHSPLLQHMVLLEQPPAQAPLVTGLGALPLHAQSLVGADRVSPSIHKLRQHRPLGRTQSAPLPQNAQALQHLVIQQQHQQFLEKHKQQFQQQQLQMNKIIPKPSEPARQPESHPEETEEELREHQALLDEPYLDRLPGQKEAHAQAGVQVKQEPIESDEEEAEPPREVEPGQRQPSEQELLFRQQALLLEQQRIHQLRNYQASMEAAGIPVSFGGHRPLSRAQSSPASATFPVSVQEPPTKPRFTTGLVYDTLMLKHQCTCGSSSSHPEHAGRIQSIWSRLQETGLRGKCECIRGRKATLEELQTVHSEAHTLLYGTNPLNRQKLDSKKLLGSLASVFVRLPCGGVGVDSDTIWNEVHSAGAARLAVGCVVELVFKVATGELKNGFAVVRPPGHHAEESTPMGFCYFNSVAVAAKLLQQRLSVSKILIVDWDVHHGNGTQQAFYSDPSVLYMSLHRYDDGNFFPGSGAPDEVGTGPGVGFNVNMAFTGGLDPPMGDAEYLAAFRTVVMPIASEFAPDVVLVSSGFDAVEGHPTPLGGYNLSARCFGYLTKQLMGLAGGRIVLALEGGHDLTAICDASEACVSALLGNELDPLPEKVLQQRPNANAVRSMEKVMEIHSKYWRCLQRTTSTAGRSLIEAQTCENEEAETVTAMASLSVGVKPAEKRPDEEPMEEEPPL

B1: 3HA tagged ENIGMA fragment containing the PDZ domain and linker (other, mouse, UniProt Q3TJD7 1-279, looked up)
chain: MDSFKVVLEGPAPWGFRLQGGKDFNVPLSISRLTPGGKAAQAGVAVGDWVLNIDGENAGSLTHIEAQNKIRACGERLSLGLSRAQPVQSKPQKALTPPADPPRYTFAPSASLNKTARPFGAPPPTDSTLRQNGQLLRQPVPDASKQRLMEDTEDWRPRPGTGQSRSFRILAHLTGTEFMQDPDEEFMKKSSQVPRTEAPAPASTIPQESWPGPTTPSPTSRPPWAVDPAFAERYAPDKTSTVLTRHSQPATPTPLQNRTSIVQAAAGGGTGGGSNNGKT
notes: domain: PDZ domain and linker; not shown: 3HA tag
As for B1, the binding result is given as “no binding”.

B2: 3HA tagged ENIGMA fragment containing the linker and first LIM domain (other, mouse, UniProt Q3TJD7 86-338, looked up)
chain: PVQSKPQKALTPPADPPRYTFAPSASLNKTARPFGAPPPTDSTLRQNGQLLRQPVPDASKQRLMEDTEDWRPRPGTGQSRSFRILAHLTGTEFMQDPDEEFMKKSSQVPRTEAPAPASTIPQESWPGPTTPSPTSRPPWAVDPAFAERYAPDKTSTVLTRHSQPATPTPLQNRTSIVQAAAGGGTGGGSNNGKTPVCHQCHKIIRGRYLVALGHAYHPEEFVCSQCGKVLEEGGFFEEKGAIFCPSCYDVRYA
notes: domain: linker and first LIM domain; not shown: 3HA tag
With B2, the binding result is listed as “no binding”.

Source of the values: patent US20190309300A1 (TECHNION RESEARCH AND DEVELOPMENT FOUNDATION, published 2019).
